The source of these data is PMC10115844, “The structural basis of tRNA recognition by arginyl-tRNA-protein transferase”.

Data set [1] has as its target T1, scATE1 (arginyl-tRNA-protein transferase 1) (Saccharomyces cerevisiae) (UniProt P16639).
T1 sequence: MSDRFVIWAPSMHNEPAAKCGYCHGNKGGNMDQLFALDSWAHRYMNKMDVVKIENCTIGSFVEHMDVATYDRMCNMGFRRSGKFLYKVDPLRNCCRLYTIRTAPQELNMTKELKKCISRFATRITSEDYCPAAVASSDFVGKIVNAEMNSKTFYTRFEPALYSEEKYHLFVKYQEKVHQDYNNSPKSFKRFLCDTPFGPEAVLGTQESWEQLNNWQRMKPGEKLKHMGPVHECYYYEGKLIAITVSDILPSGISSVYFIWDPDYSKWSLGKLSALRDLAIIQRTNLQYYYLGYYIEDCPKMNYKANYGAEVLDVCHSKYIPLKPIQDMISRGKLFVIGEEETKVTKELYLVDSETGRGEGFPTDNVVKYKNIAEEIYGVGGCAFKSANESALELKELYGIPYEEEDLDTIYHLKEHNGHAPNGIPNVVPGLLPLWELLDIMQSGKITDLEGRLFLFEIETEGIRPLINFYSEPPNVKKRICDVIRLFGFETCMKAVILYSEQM
The data set is described as follows: EMSA. The note with it: EMSA: 20 mM Tris-HCl pH 7.5, 150 mM NaCl, 5 mM DTT, on ice (tRNAArg: 0.001% NP-40, 30 °C), MST: 10 mM Tris, 5 mM Na phosphate pH 7.0, 100 mM NaCl, 3 mM DTT …. Background: A gel shift assay detects complexes by their altered migration in electrophoresis.

Data set [2] deals with T2, scATE1 (arginyl-tRNA-protein transferase 1) (Saccharomyces cerevisiae, UniProt P16639 1-503).
T2 sequence: T1 sequence
Nature of the data set: cryoEM structure; co-purified complex, 3.7 Å map; EMD-29638; EMSA: 20 mM Tris-HCl pH 7.5, 150 mM NaCl, 5 mM DTT, on ice (tRNAArg: 0.001% NP-40, 30 °C); MST: 10 mM Tris, 5 mM Na phosphate pH 7.0, 100 mM NaCl, 3 mM DTT, 0.08% Tween-20; fluorescence: 20 mM Tris pH 7.5, 125 mM NaCl, 3 mM DTT, 27 °C. The settings on record: protein: recombinant; tags: N-terminal GST (pGEX 6p-1), cleaved with PreScission; label: none; tRNA cloverleaf.

Data set [3] deals with T2, scATE1 (arginyl-tRNA-protein …). Nature of the data set: MST competition; displacement of FAM-DNA, 30 µM ATE1; EMSA: 20 mM Tris-HCl pH 7.5, 150 mM NaCl, 5 mM DTT, on ice (tRNAArg: 0.001% NP-40, 30 °C); MST: 10 mM Tris, 5 mM Na phosphate pH 7.0, 100 mM NaCl, 3 mM DTT, 0.08% Tween-20; fluorescence: 20 mM Tris pH 7.5, 125 mM NaCl, 3 mM DTT, 27 °C. The note with it: protein: recombinant; tags: N-terminal GST (pGEX 6p-1), cleaved with PreScission; label: none (SYBR green stain); hairpin.

The term Ki denotes a dissociation constant, usually derived from enzyme kinetics or from competition with a known ligand.

In data set [1] (2-fold stronger than E. coli acceptor arm), human tRNAArg acceptor (A) arm returned a Kd of 1500 nM.

E. coli tRNALys acceptor arm gave a Kd in data set [1] (smeary bands, possibly non-specific) of 4000 nM.

In data set [1] (0.25 µM tRNA, affinity similar to acceptor arm alone), “full-length tRNALys, in vitro transcribed” came in with a binding signal (fold weaker than tRNAArg) of 20.

Consider human tRNAArg, in vitro transcribed, for which the Kd in data set [1] (30 °C, 0.001% NP-40, 1 nM RNA, apparent Kd) is 155 nM.

human tRNAArg A + T arms: in data set [1], the binding signal (fold higher affinity from A + T arms) turned out to be 4.

B1: tRNAArg (argU) in the cryoEM complex (structured_RNA)
RNA: GCGCCCUUAGCUCAGUUGGAUAGAGCAACGACCUUCUAAGUCGUGGGCCGCAGGUUCGAAUCCUGCAGGGCGCGCCA
modifications: native modifications possible, not stated
For B1, the binding result in data set [2] is listed as “binds”.

Regarding GCAUCCGCUACGAACGGAUGCACCA (structured_RNA) [E. coli tRNAArg acceptor arm miniRNA hairpin], the Ki in data set [3] was about 3600 nM.
